Data published in the supplement of paper PMC12455559.

Test: purified protein yield per well (BCA); higher = higher soluble expression
Method in brief: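 Candidate enzymes were made in 2 mL autoinduction cultures of E. coli C41(DE3) with 100 µg/mL kanamycin, at 37 °C for 2 h and then 18 °C for 40 h, and purified with Ni-charged magnetic beads and SUMO protease cleavage. The Pierce Rapid Gold BCA kit gave purified protein yield per well. Values lower than 25 ug (0.1 mg/mL) are below the detection threshold.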

Sequence | purified protein yield per well
QVANPYAKGPNPTEASVTATTGPFAVTTSNISSLVSGFGGGRLYYPTATNQGTYGAIALSPGFTAGWSSIDWLGPRLASFGFVVIGIETNSRYDYPPSRGEQLLAALDWAVEDSPAASRIDPTRLAVGGHSMGGGGSLEAASDRPSLKAVLPLAPWNSDKTWNEVQVPTLIIGGESDTVAPVGSHSTPFYNSLSGEKAFLELNNASHFFPQSPNNLVAKLAISWAKRWVDNDTRYSQFLCPGPASGGLSEVQAYRQTCPF [TEP096] | < 25 µg
QVGPAPSSSSLNATAGPFAVSTSNVILARGFGGGTIYYPSTSGLYGVVAISPGFTATESSVAWLGRRMATHGLVVITINTNTTLDQPASRATQLMAALNYVVNSASSTVRSRVDSTKLAVAGHSMGGGGALIAAEDNPTLKASLPLTPWNLSTSFTRVRVPTLIVGADGDSVASVTVHARPFYASLPASTFKAYAELNLASHFTPNSTNTPIGRYGVAWMKRFVDADTRYSPFLCGAEHNAYNTALVFDRYNQNCPY [ESM153] | < 25 µg
QVGPDPTSASLNATAGPFSVSTASVISPRGFGGGTIYYPTTTGRYGVVAISPGFTATQSSIAWLGRRLATHGLVVITMNTNSTYDQPSSRATQLMAALNYVVNSSSSTVRARVDSSKLAVAGHSMGGGGALIAAENNPTLKASLPLTPWNSSTNFSDVRVPTLIVGADGDSVASVSRHARPFYASLPSNTFKAYAELNGASHFTPNSTSTPIGRYGVAWMKRFVDADTRYSPFLCGAAHQSYATSLVFDRYSQNCPY [ESM125] | < 25 µg
QVGPTPTSSSLNVTAGPFAVSSSRVFSPRGFGGGTIYYPTTSGQYGVVAMSPGFTATESSIAWLGRRLATHGLVVITINTNSTYDQPASRATQLMAALNHVLNSASSTVRSRVDSSKLAVAGHSMGGGGALIAAQNNPTLKAALPLTPWNTSTRFDGVRVPTLIVGADGDSVARVASHARPFYASLPATTFKAYAELNGASHFAPNSTNTPIGRYGVAWMKRFVDADTRYSPFLCGAAHDAYATSAVFDRYNDNCPY [ESM085] | < 25 µg
QVVVFEETFSTGLGKFTAAGSVVTSSGAARLDGCYGCTDGSITSTAISTVDFTGLRLSFDRVTSGLDSGEAGIAEFSTNGSTYTAVESIRTASGRVTFNLPTSAENQSGLRLRFRINASLSSETYTVDNIRLEGTSGSGGGTTNPFEKGPDPTKTMLEASTGPFTYTTTTVSSTTASGYRQGTIYHPTNVTGPFAAVAVVPGYLASQSSINWWGPRLASHGFVVITIDTNSTSDQPPSRATQLMAALNQLKTFSNTSSHPIYRKVDPNRLGVMGWSMGGGGTLIAARDNPTLKAAIPFAPWNSSTNFSTVSVPTLIIACESDSTAPVNSHASPFYNSLPSTTKKAYLEMNNGSHSCANSGNSNAGLIGKYGVSWMKRFMDNDTRFSPYLCGAPHQADLSLTAIDEYRENCPY [TEP066] | < 25 µg
RDLPPSAPLAANPYERGPAPTVASIEATLGPFATAQTTVAAGSVSGFGGGTIYYPTSTAEGTFGAVAISPGFTARQTSVAWLGPRLASQGFVVITIDTRSVYDQPASRGTQLLAALDYLTNTSTVRTRIDRNRLAVMGHSMGGGGSLSAASTRPALQAAIPLTGWHTQKSWSSVRVPTLVIGAENDTVAPVSSHSEPFYTSLPATLDKAYLELNAASHSAPTSSNVTVAKYSISWLKRFVDDDTRYEQFLCPAPRGSAIEEYRDTCPHS [TEP042] | < 25 µg
RPAESGASAAAVQATGTQRGPDPTIAMIEATRGPFATAQVSAPSGNGFGGGVVYYPTDTTQGTWGALAIVPGYSALCSTEEAWMGPWLSSFGFVVICTETNTRTDSDSQRAAELQAALTWLTTQSPVKSEVDPARLSVLGHSAGGAGAMEEAEQHPELRAAIGLAPGFPGQGLTLATDTVPTLIVGGQNDGTVTPSYLSNLYGTLPASTQSDFAQIAGADHVYYTHANNIEMKLIIPWLKVFVDSDTRYTQFLCPTLPDPSTISAYQPKCPYVPSGGSTPPPPTSVAIVGTGSGRCVTVPGGTQTGGTQVQLADCAGGTSQQWTNTATGQLQVFGTSCLDANARGTSPGTKVIIWSCNGQQNQQWTVHADGSITGVQSGLCLDATGAGTANGTPLELWTCNGGSNQKWTLQ [TEP132] | < 25 µg
RPAPATTAASQSTQRGPDPTVAMIEATRGPFATAQVSVPAGHGFGGGMIYYPTDTSQGTWGALAIVPGYSALFANEEAWMGPWLSSFGFVVIGVETNTRTDSDSQRAAEVLAALDYLTTQSPVRNEVDPARLSVLGHSAGGAGVIEAAEQRPSLRALIGLAPGYPGQGLSMATDQVPALVVGGQADTTVTPSYLANLYGTLPASTQSDFAQIAGADHVYYTHPNNVEMKLIIPWLKLFVDSDSRYEQFLCPSLPDPSTISAYQPKCPYTPPGGSSSSSSSSSSSSASSSSPTTPTTTTSSTPSTSCTATYQTQNSWPGGFQGLVTVTAGPAAISSWTVKWNLSSGQSITQVWSGTLSTSGSAVSVGNASYNGSLAPGASATFGFLADGSPSTPTLSCTGS [ESM120] | < 25 µg
RPAPEAAAPQAAQGNPYQRGPDPTVAAIEASRGPFATAQMSVAPGNGFNGGVVYYPTDTSLGTWGALAIVPGYTALCADEEAWMGPWLSSFGFAVICVETNTRTDDAGTRASELLAGLDWLTTQSPVRAEIDPNRLSVLGHSAGGAGAIIAAERRPALKAMIGLAPGFPGNGLSMATDTVPTLVVGGQNDTVVTPSYLSGLYATLPAGTQSGFAQIAGADHVYYTRPNNVEMKLLIPWLKVFVDSDTRYTQFLCPALPDPSGISAYQPKCPYVPTGGTTPPPGGQSVHAVGAGKCLTVPGADPAAGTQTDISTCDGGTGQVWTRTSSGQLTVSTGGTTMCLDAAGAGVSPGTRVQVWPCNGGSNQQWRVNANGTITGAQSGLCLDVTGASTANGALVELWTCNGGSNQQWALQ [TEP183] | < 25 µg
RPRDSAPANPYQRGPDPTVAMIESSTGPFATTSASVPAGHGFNGGTVYYPTDTSLGTWGALAIVPGYSALFANEEAWMGPWLSSFGFVVLGVETNSRTDSADARGTELLAALDYLTTQSPVRDRVDPNRLAVLGHSAGGAGAMLAAENRPSLKAAIGLAPGSPVGNLSLATDKVPTMVLGGQNDTVVTPSYLSGLYATMPASTQSVFAQIAGADHVYYTHPNNVEMKLLIPWLKTFLDSDTRHPPFLCPAPPDPRSISIYTPKCPYVPGGGTPPGGGNTGPLHAVGAAKCLAAPPAGAAGTQVTIGGCDGRAGQTWTRTAAAELTVTPAGTPLCLDASGQGTSPGTKVIVWSCNGQANQQWNLNADGSVTAARSGLCLDVTGASTAEGAPVELWSCNGGSNQRWSLG [TEP095] | < 25 µg
RPSAENPYERGPAPTVASIEAARGPFGTAETRVSATAVRGFGGGTIYYPTDTSQGTFGAVAVAPGFTASQSSMSWLGPRLASQGFVIFTIDTLGRYDQPAARGDQLLAALDYLTQSSSVRGRIDGSRLAVMGHSMGGGGSLEAAKDRPALQAAIPLTPWNATKNWSSVRTPTLIIGAERDSVASVAAHSEPFYASLPSTLDRAYLELAGASHFAPNVANVTIAKYSISWLKRFVDNDTRYEQFLCPLPSGSAISEYRGNCPHQG [TEP152] | < 25 µg
RPSSAATSLAATQRGPDPTVAMIEATRGPFATAQVSVPSGHGFGGGMIYYPTDTSLGTWGALAIVPGYSALFANEEAWMGPWLSSFGFVVIGVETNTRTDSDSQRAAELQAALDYLTTQSPVRNQVDPTRLSVLGHSAGGAGAIEEAEQHPSLRALIGLAPGFPGQGLSMATDKVPSLIIGGQADGTVTPSYLANLYGTLPASTQSAFAQIAGADHVYYTHPNNVEMKLIIPWLKLFVDGDNRYQQFLCPALPDPSTISAYQPKCPYTPPGGSTSSSSSSTTTTTTTTSTTPTSTSSSPSGSCSATYQTQNYWPGGFQGLVTVTAGSAPISKWTVKWTLSSGQTITQVWNGTLSTSGSAVSVANVSYNGSLSPGTSTTFGFLANGPTSAPTLSCTGS [ESM039] | < 25 µg
RSAPDAAAPRAASGNPYQRGPDPTVASIEATRGPFATAQLNVAPGNGFNGGVVSYPTDTSLGTWGALAIVPGYSALCADEEAWMGPWLSSFGFVVICVETNTRTDSADARAAELLAALNWLTTQSPVKGQIDPGRLSVLGHSAGGAGAILAAERQPSLKAMIGLAPGFPGNGLSMATDTVPTLVIGGQNDTVVTPSYLSGLYATLPGTTQSGFAQIAGADHVYYTRPNNVEMKLLIPWLKLFVDSDTRYSPFLCPALPDPSAVSIYQPKCPYTPPGGSTPPPSTSSGPPMSPAGGRPVHAVGAGKCLDVPGLSATAGTQTDIRTCDGGAGQLWTRASAGRLTVQTGGSTMCLDAAGRGASPGTKVQIWPCNGGSNQQWNVNANGTITGTQSGLCLDVTGGSTADGALVELWTCNGGSNQQWTSQ [TEP076] | < 25 µg
RSGPYQVAYYTQLPPVPEFGAATLYFPANKGQDFSGVVIAPGYIEQQENISWWGNHLASHGFAVLTIDTNSLQDNPQLRAEALMAGVELLRGENTRMGGTLRGKFHEQQMAVMGHSMGGGGALLAANNSGGELKAAIPLTPWLPDGDFGAVAVPTLLISGETDRIAAVADHARLHYQSLPEELTKMYLEIKGGNHFIANSIVENEGLNPNIDVRDLVGGMA [TEP023] | < 25 µg
SAAGNNIGHRQGGDTFASATVIEALPFSDSGTTSGFNNDYGPYSNQSSYNICQWQGYYDNTNTGAGPDVVYSLALSEEKTVKISLCGSDYDTGLGVFDGSGVQVLGNDDACSLQSEVVCALPEGLYYIVVDGYSTSSGNYVLNVSIEEDLFGPYSVGTITEDDGLRDGPDYCCGIVYYPTDAVGYLPAIVYIPGYAGTISSNENWGPYLASHGIVTMFVNANFSLASNETRAEALLDGLVTIQDENQRPGSPLYGNLNLNQLAVAGHSRGGGAALLAAAAEPSVNAVLALAPWLEDQFINSTTLDQDVPVLFLSGQLDESAPNDVHTNLFYAYTPETTDKLLYEISGGDHFIVKDPSNNSAMAMKALYWLEKYLTNDPTHC [TEP001] | < 25 µg
SAPVHHRAATHTSAAAHHHAPFAVRTTVVPRTAVTKFGGGVIYAPLDTGKPVLGAVVITPGFTDTNANEKEMAELVASQGFVAFAIDTLTTDDLPDLRAAQMLAAADYLTGQSAVRSEVSQDDVGLIGYSFGGGGTMQAAQSRPSIKAAIGLMPFDFPPATDPNAMYPSYPKMTTPTLVITGQKDDVADPKDFGKPAYDSIPAGTPKQYLELAGIGHEGGQHVPSATIRNAVTAFLKRYLDGNSAYAKFICPAPKVGGPISASLSSCPKG [ESM131] | < 25 µg
SASASAPAASRVQAAASGNTYQRGPDPTLSSVAASTGPFATAQVSVPAGYGFKGGMIYYPTDTSLGTWGAVAIVPGYTALFANEEAWMGPWLASFGFVVIGVETNSTTDYDTQRGTELLAALNYLTTQSPVRDRVDPTRLGVIGHSMGGGGVVYATEHQPSLKGAVALAPFSPSQSMATDTVPTMVMGGQNDTVVTPSYLAGLYATLPASTQSDFIQIAGADHIYYTHPNPVEMRILIPWLKTFLDEDTRYTQFLCPTLADPSGVSMYQSKCPYVPGGGSTPPPPAGGALHAVGAGKCVDVPNSTTTSGTQVQIYSCNGQANQAFTHNSAGELAVTDAGVTDCLDANGKGTTNGTKVIIYPCNGQPNQQWTINSNGTITGVQSGLCLDVTGASTANGALVELWTCNGGSNQKWTLS [TEP058] | < 25 µg
